Reference: the supplement of paper PMC10567573

B1: TBX5 (parent)
chain: FHEVGTEMIITKAGRRMFPSYKVK

Variants of: B1
Assay: protein stability index of a GFP-peptide fusion (GPS, HEK-293T) (PSI 1-6); higher = more stable
Settings: c terminus: a fixed tail appended
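Further: lentivirally expressed fusions sorted by FACS into six bins by GFP to DsRed ratio, PSI derived from sequencing read proportions per bin multiplied by bin number.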

First: H2V
Second: H2T
The protein stability index of the first is higher: 2.38 for the first, 1.85 for the second.

First: H2I
Second: H2R
The protein stability index of the first is lower: 1.69 for the first, 2.53 for the second.

First: H2D
Second: H2A
The protein stability index of the first is higher: 2.67 for the first, 2.04 for the second.

Compared with H2L, H2W is lower in protein stability index: 2.07 for the first, 1.57 for the second.

Compared with H2F, H2M is lower in protein stability index: 2.39 for the first, 2.03 for the second.

First: H2P
Second: H2N
The protein stability index of the first is lower: 2.27 for the first, 2.93 for the second.

Compared with H2K, H2Y is higher in protein stability index: 2.24 for the first, 2.41 for the second.

Compared with H2G, H2E is higher in protein stability index: 2.48 for the first, 3.09 for the second.

First: H2C
Second: H2S
The protein stability index of the first is lower: 1.72 for the first, 2.53 for the second.

Going from H2Q to M8K, the protein stability index rises from 1.84 to 2.68.

First: M8W
Second: M8Q
The protein stability index of the first is higher: 2.07 for the first, 2.06 for the second.

Going from M8E to M8L, the protein stability index falls from 3.03 to 1.66.

First: M8I
Second: M8G
The protein stability index of the first is lower: 1.33 for the first, 1.93 for the second.

First: M8S
Second: M8V
The protein stability index of the first is higher: 2.34 for the first, 1.43 for the second.

Going from M8F to M8A, the protein stability index rises from 1.59 to 2.27.

Compared with M8H, M8T is lower in protein stability index: 2.33 for the first, 2.2 for the second.

Compared with M8R, M8D is higher in protein stability index: 1.79 for the first, 3.29 for the second.

Compared with M8N, M8Y is lower in protein stability index: 2.38 for the first, 1.87 for the second.

First: M8P
Second: M8C
The protein stability index of the first is lower: 2.08 for the first, 2.09 for the second.

I9A and I9D are the same in protein stability index: 2.38 for the first, 2.38 for the second.

Compared with I9M, I9C is lower in protein stability index: 2.19 for the first, 1.5 for the second.

First: I9T
Second: I9Y
The protein stability index of the first is higher: 2.84 for the first, 1.8 for the second.

First: I9F
Second: I9K
The protein stability index of the first is higher: 2.52 for the first, 2.48 for the second.

First: I9Q
Second: I9E
The protein stability index of the first is lower: 2.5 for the first, 3.06 for the second.

Going from I9V to I9P, the protein stability index falls from 3.05 to 2.75.

First: I9G
Second: I9S
The protein stability index of the first is lower: 2 for the first, 2.29 for the second.

Going from I9R to I9N, the protein stability index falls from 2.68 to 2.46.

Going from I9L to G5D, the protein stability index rises from 1.79 to 2.58.

Compared with G5N, G5C is higher in protein stability index: 1.5 for the first, 2.02 for the second.

First: G5H
Second: G5Q
The protein stability index of the first is lower: 1.92 for the first, 2.13 for the second.

Compared with G5P, G5S is higher in protein stability index: 2.05 for the first, 2.76 for the second.

First: G5L
Second: G5V
The protein stability index of the first is higher: 1.92 for the first, 1.23 for the second.

Going from G5M to G5A, the protein stability index rises from 1.69 to 2.44.

First: G5K
Second: G5I
The protein stability index of the first is lower: 1.88 for the first, 3.47 for the second.

Going from G5T to G5Y, the protein stability index falls from 1.92 to 1.49.

Compared with E7H, E7P is higher in protein stability index: 1.55 for the first, 1.71 for the second.

Compared with E7K, E7C is higher in protein stability index: 1.92 for the first, 2.07 for the second.

Compared with E7N, E7L is higher in protein stability index: 1.88 for the first, 1.93 for the second.

First: E7T
Second: E7D
The protein stability index of the first is higher: 1.87 for the first, 1.81 for the second.

First: E7W
Second: E7A
The protein stability index of the first is lower: 2.06 for the first, 2.82 for the second.

First: E7S
Second: E7M
The protein stability index of the first is higher: 1.66 for the first, 1.49 for the second.

First: E7G
Second: E7V
The protein stability index of the first is higher: 2.98 for the first, 1.84 for the second.

Going from E7Q to F1K, the protein stability index rises from 1.81 to 3.54.

First: F1T
Second: F1L
The protein stability index of the first is higher: 3.13 for the first, 2.3 for the second.

Going from F1M to F1W, the protein stability index falls from 3.02 to 2.46.

Going from F1P to F1Q, the protein stability index falls from 3.5 to 3.25.

Going from F1S to F1Y, the protein stability index falls from 3.09 to 2.55.

Compared with F1V, F1N is higher in protein stability index: 2.58 for the first, 3.4 for the second.

Going from F1R to T11A, the protein stability index rises from 2.58 to 3.29.

Compared with T11C, V4E is lower in protein stability index: 2.44 for the first, 2.23 for the second.

First: V4A
Second: V4G
The protein stability index of the first is lower: 1.97 for the first, 2.32 for the second.

Compared with V4N, V4H is lower in protein stability index: 2.05 for the first, 1.85 for the second.

First: V4F
Second: V4R
The protein stability index of the first is higher: 2.65 for the first, 1.42 for the second.

Going from V4S to V4Y, the protein stability index rises from 1.95 to 2.46.

First: V4M
Second: V4C
The protein stability index of the first is lower: 1.6 for the first, 2 for the second.

Compared with V4Q, V4P is lower in protein stability index: 1.96 for the first, 1.86 for the second.

Compared with V4D, V4K is lower in protein stability index: 2.48 for the first, 1.98 for the second.

Compared with V4I, V4T is lower in protein stability index: 2.41 for the first, 2.34 for the second.

Compared with V4L, T6F is higher in protein stability index: 2.09 for the first, 2.76 for the second.

Compared with T6W, T6E is higher in protein stability index: 2.13 for the first, 3.65 for the second.

First: T6L
Second: T6D
The protein stability index of the first is higher: 3.1 for the first, 2.25 for the second.

First: T6A
Second: T6V
The protein stability index of the first is lower: 1.93 for the first, 2.07 for the second.

Compared with T6C, T6G is higher in protein stability index: 1.52 for the first, 2.9 for the second.

Going from T6N to T6S, the protein stability index rises from 1.68 to 2.21.

Compared with T6K, T6P is lower in protein stability index: 2.23 for the first, 1.3 for the second.

First: T6H
Second: T6Y
The protein stability index of the first is higher: 2.01 for the first, 1.56 for the second.

Compared with T6M, T6R is higher in protein stability index: 1.37 for the first, 1.62 for the second.

First: T6Q
Second: I10S
The protein stability index of the first is lower: 2.2 for the first, 3.26 for the second.

Compared with I10T, I10K is higher in protein stability index: 1.91 for the first, 2.84 for the second.

First: I10D
Second: I10R
The protein stability index of the first is higher: 3.5 for the first, 2.21 for the second.

First: I10L
Second: I10Q
The protein stability index of the first is lower: 2.21 for the first, 2.45 for the second.

First: I10V
Second: I10E
The protein stability index of the first is lower: 2.14 for the first, 2.66 for the second.

Compared with I10C, I10Y is lower in protein stability index: 2.41 for the first, 1.48 for the second.

Going from I10H to I10F, the protein stability index rises from 2.25 to 3.28.

Compared with I10P, I10N is lower in protein stability index: 2.44 for the first, 2.03 for the second.

Going from I10A to I10M, the protein stability index falls from 1.68 to 1.63.

Compared with I10W, E3S is higher in protein stability index: 1.76 for the first, 2.8 for the second.

Compared with E3Q, E3P is higher in protein stability index: 1.8 for the first, 2.42 for the second.

Compared with E3N, E3F is higher in protein stability index: 1.03 for the first, 2.39 for the second.

First: E3K
Second: E3H
The protein stability index of the first is higher: 1.45 for the first, 1.06 for the second.

First: E3T
Second: E3V
The protein stability index of the first is lower: 1.03 for the first, 2.58 for the second.

First: E3R
Second: E3C
The protein stability index of the first is higher: 2.58 for the first, 2.54 for the second.

Going from E3I to E3D, the protein stability index falls from 4.17 to 1.26.

E3A showed a protein stability index of 1.87.
